In patent US20240083959A1 (INSTITUTE FOR BASIC SCIENCE, published 2024):

T1: recombinant Lectin-Olfactomedin-like domains of human LPHN3 (human, UniProt Q9HAR2 20-393, limits assumed)
T1 construct: domain: Lectin-Olfactomedin-like domains; also called Lec/Olf domains of LPHN3; Lec-Olf domains of LPHN3
T1 sequence (looked up): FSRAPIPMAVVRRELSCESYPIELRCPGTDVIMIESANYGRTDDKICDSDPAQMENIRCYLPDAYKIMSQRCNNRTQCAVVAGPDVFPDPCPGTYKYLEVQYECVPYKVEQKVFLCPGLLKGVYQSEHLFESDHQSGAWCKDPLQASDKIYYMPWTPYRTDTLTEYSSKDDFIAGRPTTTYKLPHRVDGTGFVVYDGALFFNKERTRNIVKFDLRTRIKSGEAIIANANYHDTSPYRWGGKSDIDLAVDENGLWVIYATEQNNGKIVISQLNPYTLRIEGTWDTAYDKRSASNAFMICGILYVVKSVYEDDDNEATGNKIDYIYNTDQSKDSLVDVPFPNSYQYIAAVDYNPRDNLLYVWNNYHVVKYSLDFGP

T2: recombinant Lectin-Olfactomedin-like domains of human LPHN1 (human, UniProt O94910 25-398, limits assumed)
T2 construct: domain: Lectin-Olfactomedin-like domains; also called Lec/Olf domains of LPHN1; Lec-Olf domains of LPHN1
T2 sequence (looked up): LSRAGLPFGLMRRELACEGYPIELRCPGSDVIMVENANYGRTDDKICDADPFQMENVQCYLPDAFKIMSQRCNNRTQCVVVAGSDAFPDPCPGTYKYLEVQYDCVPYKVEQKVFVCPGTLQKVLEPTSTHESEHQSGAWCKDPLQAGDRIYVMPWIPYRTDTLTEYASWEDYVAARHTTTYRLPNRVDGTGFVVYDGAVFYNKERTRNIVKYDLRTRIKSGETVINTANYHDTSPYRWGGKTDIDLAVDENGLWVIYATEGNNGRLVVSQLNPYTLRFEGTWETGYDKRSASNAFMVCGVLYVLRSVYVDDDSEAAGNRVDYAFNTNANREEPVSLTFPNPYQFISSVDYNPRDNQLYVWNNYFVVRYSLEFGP

T3: recombinant human LPHN2 lectin-olfactomedin-like domain, residues F26-P394 (human, UniProt O95490 26-394)
T3 construct: range 26-394; Coated on the plate at 100 nM; also called LPHN2 Lec/Olf domains; Lec-Olf domain
T3 sequence (looked up): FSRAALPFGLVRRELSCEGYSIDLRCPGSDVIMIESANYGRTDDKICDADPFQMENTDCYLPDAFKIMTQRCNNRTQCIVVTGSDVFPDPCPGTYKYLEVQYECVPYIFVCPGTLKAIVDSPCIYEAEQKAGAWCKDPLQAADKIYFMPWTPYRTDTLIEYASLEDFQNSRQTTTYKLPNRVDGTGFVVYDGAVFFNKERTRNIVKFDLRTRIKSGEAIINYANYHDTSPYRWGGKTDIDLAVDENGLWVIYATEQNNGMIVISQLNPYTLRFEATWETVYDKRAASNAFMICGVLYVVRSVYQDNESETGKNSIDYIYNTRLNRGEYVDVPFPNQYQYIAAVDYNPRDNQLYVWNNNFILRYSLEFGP

B1: recombinant human LRG1 (leucine-rich alpha-2 glycoprotein 1), residues V36-Q347, untagged, glycosylated (ligand)
chain: VTLSPKDCQVFRSDHGSSISCQPPAEIPGYLPADTVHLAVEFFNLTHLPANLLQGASKLQELHLSSNGLESLSPEFLRPVPQLRVLDLTRNALTGLPPGLFQASATLDTLVLKENQLEVLEVSWLHGLKALGHLDLSGNRLRKLPPGLLANFTLLRTLDLGENQLETLPPDLLRGPLQLERLHLEGNKLQVLGKDLLLPQPDLRYLFLNGNKLARVAAGAFQGLRQLDMLDLSNNSLASVPEGLWASLGQPNWDMRDGFDISGNPWICDQNLSDLYRWLQAQKDKMFSQNDTRCAGPEAVKGQTLLAVAKSQ
modifications: glycosyl groups at T37 (O-linked), N79, N186, N269 and N325 (N-linked), numbered on SEQ ID NO: 1
notes: also called wild-type LRG1; wild LRG1

Tests used:
[1] = molecular target: T1, recombinant Lectin-Olfactomedin-like …; test: solid-phase binding assay (ELISA), plate coated with 100 nM Lec-Olf domain
Method: (§1) FIG. 8E: results of solid phase binding assay to evaluate binding of wild-type LRG1 and DG-LRG1 to the Lec-Olf domains of LPHN1 and LPHN3. The plates were coated with Lec-Olf domains (100 nM) of LPHN1 and LPHN3. After washing and blocking, different amounts (0.001, 0.005, 0.01, 0.05, 0.1, 0.5, 1, 5 and 10 μM) of wild-type LRG1 or DG-LRG1 were added and LRG1 or DG-LRG1 bound to coated proteins were detected by ELISA using anti-LRG1 antibody and anti-mouse secondary antibody.

[2] = molecular target: T2, recombinant Lectin-Olfactomedin-like …; test: as above
Method: as §1

[3] = molecular target: T3, recombinant human LPHN2 …; test: solid-phase binding assay (ELISA), plate coated with LPHN2 Lec/Olf domains
Method: (§2) Solid phase binding analysis was performed by a known method (Mol Cancer Ther 14, 470-479 (2015)). LPHN2 extracellular domain variants (Lec, Olf, GAIN/GPS domain; 100 nM) were added to MaxiSorp 96-well plates (Nunc) and incubated at room temperature for 1 hour. The wells were washed twice with PBS and then incubated with 1% bovine serum albumen (BSA) for 2 hours. After blocking, various amounts (0.001, 0.005, 0.01, 0.05, 0.1, 0.5, 1, 5 or 10 μM) of wild-type LRG1 or DG-LRG1 were added to 96-well plates coated with the indicated LPHN2 extracellular domain variants. LRG1 bound to the coated protein was detected by ELISA using an anti-LRG1 antibody (Cat #sc517443, Santa Cruz) and a peroxidase-conjugated anti-mouse secondary antibody (Cat #62-6520, Thermo Fisher Scientific).
Whether or not deglycosylation of LRG1 (DG-LRG1) affects the binding affinity to LPHN2 in vitro (FIG. 7B) and ex vivo (FIGS. 7C and 8C) was determined. […] Cell surface binding rates of LRG1 and DG-LRG1 in HUVEC and HEK293T cells were evaluated and verified again (Table 3, FIGS. 7C and 8C)

[4] = molecular target: B1; test: solid-phase binding assay (ELISA), plate coated with LPHN2 ectodomain variants
Method: as §2

Binder | binding result [1] | binding result [2] | Kd [3] [nM] | binding result [4]
B1 | no binding (tested: 0.001 to 10 µM added) | no binding (tested: 0.001 to 10 µM added) | 920 | 
deglycosylated LRG1 (LRG1 treated with PNGase F) (ligand, N-linked glycans removed with PNGase F (sites N79, N186, N269, N325 on SEQ ID NO: 1), For FACS it was conjugated with Alexa 647; also called DG-LRG1; deglycosylated form) VTLSPKDCQVFRSDHGSSISCQPPAEIPGYLPADTVHLAVEFFNLTHLPANLLQGASKLQELHLSSNGLESLSPEFLRPVPQLRVLDLTRNALTGLPPGLFQASATLDTLVLKENQLEVLEVSWLHGLKALGHLDLSGNRLRKLPPGLLANFTLLRTLDLGENQLETLPPDLLRGPLQLERLHLEGNKLQVLGKDLLLPQPDLRYLFLNGNKLARVAAGAFQGLRQLDMLDLSNNSLASVPEGLWASLGQPNWDMRDGFDISGNPWICDQNLSDLYRWLQAQKDKMFSQNDTRCAGPEAVKGQTLLAVAKSQ | no binding (tested: 0.001 to 10 µM added) | no binding (tested: 0.001 to 10 µM added) | 450 | 
recombinant human LPHN2 olfactomedin-like domain, residues V135-P394 (receptor, UniProt O95490 135-394, looked up, range 135-394; Expressed with an Fc tag and released untagged with thrombin; also called Olf domain of LPHN2) VCPGTLKAIVDSPCIYEAEQKAGAWCKDPLQAADKIYFMPWTPYRTDTLIEYASLEDFQNSRQTTTYKLPNRVDGTGFVVYDGAVFFNKERTRNIVKFDLRTRIKSGEAIINYANYHDTSPYRWGGKTDIDLAVDENGLWVIYATEQNNGMIVISQLNPYTLRFEATWETVYDKRAASNAFMICGVLYVVRSVYQDNESETGKNSIDYIYNTRLNRGEYVDVPFPNQYQYIAAVDYNPRDNQLYVWNNNFILRYSLEFGP |  |  |  | binds
